The target in this test is Plasmodium falciparum plasmoredoxin (Plasmodium falciparum). The test is described as follows: SEC; PfPlrx without TCEP, at least partially oxidized.

“Plasmodium falciparum plasmoredoxin (natural protein)” yielded a stoichiometry N of 2.

For the origin of these results see publication PMC9006252.
